Reference: patent US7358353B2, “Nucleic acid and corresponding protein named 158P1D7 useful in the treatment and detection of bladder and other cancers” (Agensys, Inc., priority 2000, dated 2008)

Target: T1, 158P1D7 protein (Homo sapiens, UniProt Q9H5Y7)
T1 construct: from tissue; host or cells: formalin fixed, paraffin embedded tumor tissue from patients (bladder transitional cell carcinoma, breast ductal carcinoma, lung carcinoma)
Test: Immunohistochemistry of cancer patient specimens with anti-158P1D7 MAb (Table LVIII)
Description: FIG. 36. Detection of 158P1D7 protein by immunohistochemistry in various cancer patient specimens. Tissue was obtained from patients with bladder transitional cell carcinoma, breast ductal carcinoma and lung carcinoma. […] (C) breast infiltrating ductal carcinoma, moderately differentiated, (D) breast infiltrating ductal carcinoma, moderate to poorly differentiated, (E) lung squamous cell carcinoma, (F) lung adenocarcinoma, well differentiated.
The sections were dewaxed, rehydrated and treated with antigen retrieval solution (Antigen Retrieval Citra Solution; BioGenex, 4600 Norris Canyon Road, San Ramon, Calif., 94583) at high temperature. Sections were then incubated in mouse monoclonal anti-158P1D7 antibody, M15-68(2)22, for 3 hours. The slides were washed three times in buffer and further incubated with DAKO EnVision+™ peroxidase-conjugated goat anti-mouse immunoglobulin secondary antibody (DAKO Corporation, Carpenteria, Calif.) for 1 hour. The sections were then washed in buffer, developed using the DAB kit (SIGMA Chemicals), counterstained using hematoxylin, and analyzed by bright field microscopy. […] 49.3% of bladder transitional cell carcinoma samples tested were positive for 158P1D7 (Table LVIII).

[1] = Breast Carcinoma patient specimens
[2] = Lung Carcinoma patient specimens

% No. Positive (Bladder TCC patient specimens): 49.3%
Number Positive (Bladder TCC patient specimens): 35
% No. Positive [1]: 90.9%
Number Positive [1]: 11
% No. Positive [2]: 23.1%
Number Positive [2]: 26
Substance: 158P1D7 protein
